In patent publication US20080241125A1 (Dana-Farber, published 2008):
No end group written: not given here.

Target: T1, purified IKKγ (human, UniProt Q9Y6K9 1-419, limits assumed)
T1 construct: also called NEMO
Test: GST pull-down of purified IKKγ with GST-MUC1-CD fragments on glutathione beads, anti-IKKγ immunoblot (FIG. 5C)
Text: FIG. 5C is a pair of photographs of immunoblots. […] The precipitates were immunoblotted (IB) with anti-IKKγ antibody. […] The molecular weights of proteins (as indicated on the left of the photographs) are expressed as kilodaltons (kDa).

T1 sequence (Q9Y6K9 whole entry): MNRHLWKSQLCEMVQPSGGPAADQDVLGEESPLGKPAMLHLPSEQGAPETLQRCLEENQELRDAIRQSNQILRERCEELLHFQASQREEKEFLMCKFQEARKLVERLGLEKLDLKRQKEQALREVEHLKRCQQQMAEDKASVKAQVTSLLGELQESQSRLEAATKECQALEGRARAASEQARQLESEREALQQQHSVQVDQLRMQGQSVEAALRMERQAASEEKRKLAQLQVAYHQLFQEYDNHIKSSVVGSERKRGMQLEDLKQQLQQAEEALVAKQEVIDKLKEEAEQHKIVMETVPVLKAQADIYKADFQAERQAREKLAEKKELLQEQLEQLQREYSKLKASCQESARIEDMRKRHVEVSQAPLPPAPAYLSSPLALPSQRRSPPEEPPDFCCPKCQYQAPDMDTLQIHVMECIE

binding result: no binding
B1: GST-MUC1-CD(1-45) (other)
chain: CQCRRKNYGQLDIFPARDTYHPMSEYPTYHTHGRYVPPSSTDRSP
modifications: cysteine pairing not given here; also: GST fusion, GST sequence and linker not given here
notes: not shown: glutathione S-transferase (GST) tag
